Molecular target: lg3bp_human LGALS3BP (UniProt Q08380)
Sequence (Q08380 whole entry): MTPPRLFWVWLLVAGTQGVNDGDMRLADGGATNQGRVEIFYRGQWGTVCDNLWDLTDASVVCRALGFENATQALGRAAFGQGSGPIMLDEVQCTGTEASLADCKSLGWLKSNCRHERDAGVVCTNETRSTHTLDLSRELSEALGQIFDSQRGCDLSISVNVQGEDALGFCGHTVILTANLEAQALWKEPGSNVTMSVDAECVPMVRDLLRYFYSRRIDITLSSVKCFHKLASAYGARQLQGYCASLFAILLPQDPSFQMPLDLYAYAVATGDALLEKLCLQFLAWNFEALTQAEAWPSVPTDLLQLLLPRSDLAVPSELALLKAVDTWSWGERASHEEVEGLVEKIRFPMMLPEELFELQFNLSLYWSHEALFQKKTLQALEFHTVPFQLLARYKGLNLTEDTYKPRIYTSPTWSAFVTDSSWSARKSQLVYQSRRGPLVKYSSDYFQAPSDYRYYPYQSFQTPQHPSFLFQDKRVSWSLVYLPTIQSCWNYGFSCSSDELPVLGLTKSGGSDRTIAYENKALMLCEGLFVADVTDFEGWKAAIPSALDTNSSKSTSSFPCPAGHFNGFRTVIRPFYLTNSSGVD

Chain of Extracellular sulfatase Sulf-2 (Homo sapiens), Q8IWU5 S583A (Q8IWU5 whole entry S583A): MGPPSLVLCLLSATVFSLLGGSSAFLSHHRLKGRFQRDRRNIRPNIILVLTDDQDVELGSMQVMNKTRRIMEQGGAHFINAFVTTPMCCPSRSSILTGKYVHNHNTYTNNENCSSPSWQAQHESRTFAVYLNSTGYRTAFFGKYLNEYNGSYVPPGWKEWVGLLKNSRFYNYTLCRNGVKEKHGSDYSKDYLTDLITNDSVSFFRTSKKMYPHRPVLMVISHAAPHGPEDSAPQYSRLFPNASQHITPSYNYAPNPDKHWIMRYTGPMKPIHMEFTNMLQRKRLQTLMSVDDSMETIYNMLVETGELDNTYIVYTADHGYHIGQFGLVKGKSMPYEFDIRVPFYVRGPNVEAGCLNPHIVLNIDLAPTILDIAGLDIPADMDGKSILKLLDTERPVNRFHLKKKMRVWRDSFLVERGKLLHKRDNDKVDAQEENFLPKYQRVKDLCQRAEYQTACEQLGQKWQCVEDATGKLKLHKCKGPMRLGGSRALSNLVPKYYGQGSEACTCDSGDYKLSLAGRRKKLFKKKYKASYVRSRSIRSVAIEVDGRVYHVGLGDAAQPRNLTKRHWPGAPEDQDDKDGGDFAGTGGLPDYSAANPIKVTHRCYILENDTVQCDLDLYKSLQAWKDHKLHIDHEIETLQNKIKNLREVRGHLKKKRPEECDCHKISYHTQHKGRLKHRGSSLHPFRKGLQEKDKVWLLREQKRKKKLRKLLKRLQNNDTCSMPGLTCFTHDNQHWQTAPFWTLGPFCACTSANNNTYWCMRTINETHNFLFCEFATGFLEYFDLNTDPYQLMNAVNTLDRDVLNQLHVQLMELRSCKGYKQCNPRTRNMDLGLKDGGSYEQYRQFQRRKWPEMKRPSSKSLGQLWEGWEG

Extracellular sulfatase Sulf-2 (Homo sapiens), Q8IWU5 S583A
effect of a mutation on the interaction: increasing interaction strength

Reference: IntAct's records for PubMed 38825040
